Test results from patent US20100330072A1 (published 2010).

T1: recombinant mature myostatin (human, produced in E. coli) (human, UniProt O14793 267-375)
T1 construct: mature; also called GDF-8
T1 sequence (looked up): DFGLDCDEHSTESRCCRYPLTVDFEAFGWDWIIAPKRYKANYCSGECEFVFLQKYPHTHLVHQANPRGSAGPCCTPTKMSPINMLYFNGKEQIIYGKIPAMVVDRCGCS

B1: 2x mTN8-19-7 peptibody (Fc fusion)
chain: GGGGGAQLADHGQCIRWPWMCPPEGWELEGSGSATGGSGSTASSGSGSATGLADHGQCIRWPWMCPPEGWELE
notes: Fc dimer; also called 2×mTN8-19-7
B2: 2x mTN8-19-21 peptibody (Fc fusion)
chain: GGGGGAQSEYQGLCTRWPWMCPPQGWKLEGSGSATGGSGSTASSGSGSATGSEYQGLCTRWPWMCPPQGWKLE
notes: Fc dimer
B3: 2x mTN8-19-33 peptibody (Fc fusion)
chain: GGGGGAQPESQGHCTRWPWMCPPQGWGLEGSGSATGGSGSTASSGSGSATGPESQGHCTRWPWMCPPQGWGLE
notes: Fc dimer; also called 2×mTN8-19-33

Molecular target: T1, recombinant mature myostatin (human, …)
Test: KinExA solution equilibrium assay or BIAcore (table does not say which)

Q: How did the Kd turn out when B1 was run?
A: The Kd was 12 pM.

Q: With B2 as the binder, how does the Kd read?
A: Its Kd is 6 pM.

Q: How did the Kd turn out when B3 was run?
A: Its Kd is 3 pM.
